Our source for the Evi1 enrichment (H/L ratio) values is patent US20170322217A1.

The target of this experiment is Rad50 (Homo sapiens (Human)) (UniProt Q92878). As to the kind of experiment: SILAC LC-MS/MS of anti-Flag immunoprecipitate, heavy (EVI1-Flag) over light (Flag control).
Chain of UniProt Q92878 (Q92878 whole entry): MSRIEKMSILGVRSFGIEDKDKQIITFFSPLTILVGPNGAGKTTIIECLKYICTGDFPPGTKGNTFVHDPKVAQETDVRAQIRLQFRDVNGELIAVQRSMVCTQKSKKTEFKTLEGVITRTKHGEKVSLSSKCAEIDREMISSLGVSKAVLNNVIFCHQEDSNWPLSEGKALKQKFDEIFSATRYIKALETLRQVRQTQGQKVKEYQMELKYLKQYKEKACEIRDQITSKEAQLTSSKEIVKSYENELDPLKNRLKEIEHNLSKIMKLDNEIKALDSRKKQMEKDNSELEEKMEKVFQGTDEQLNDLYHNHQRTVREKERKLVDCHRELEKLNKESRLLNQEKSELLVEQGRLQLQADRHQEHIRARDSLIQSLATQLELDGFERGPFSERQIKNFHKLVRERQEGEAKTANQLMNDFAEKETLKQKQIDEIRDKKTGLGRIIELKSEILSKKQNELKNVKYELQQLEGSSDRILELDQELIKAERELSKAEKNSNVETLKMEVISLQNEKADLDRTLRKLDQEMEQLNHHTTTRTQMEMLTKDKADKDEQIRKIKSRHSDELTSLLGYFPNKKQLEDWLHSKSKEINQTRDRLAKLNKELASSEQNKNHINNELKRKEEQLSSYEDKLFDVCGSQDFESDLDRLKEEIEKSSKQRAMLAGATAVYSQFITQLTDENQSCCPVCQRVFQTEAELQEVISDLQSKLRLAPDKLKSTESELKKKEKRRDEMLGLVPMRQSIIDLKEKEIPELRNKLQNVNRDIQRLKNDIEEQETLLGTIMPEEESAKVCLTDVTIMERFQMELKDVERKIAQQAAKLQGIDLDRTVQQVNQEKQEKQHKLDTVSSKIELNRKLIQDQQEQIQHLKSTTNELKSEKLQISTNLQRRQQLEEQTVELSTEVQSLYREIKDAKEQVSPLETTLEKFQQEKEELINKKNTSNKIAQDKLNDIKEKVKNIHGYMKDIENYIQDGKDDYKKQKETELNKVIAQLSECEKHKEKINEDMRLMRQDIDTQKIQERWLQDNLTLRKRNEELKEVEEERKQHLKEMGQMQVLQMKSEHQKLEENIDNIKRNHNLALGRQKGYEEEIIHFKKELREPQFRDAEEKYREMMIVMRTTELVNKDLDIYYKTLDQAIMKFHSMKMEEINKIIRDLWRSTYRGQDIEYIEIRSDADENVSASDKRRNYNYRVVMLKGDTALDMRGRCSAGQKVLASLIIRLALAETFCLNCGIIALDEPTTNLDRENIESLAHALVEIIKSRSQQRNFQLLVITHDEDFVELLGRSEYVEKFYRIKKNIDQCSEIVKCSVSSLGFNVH

For the substance “EVI1-Flag construct (Evi1 protein with Flag tag, expressed in SKOV3 cells) (from UniProt Q03112 1-1051)”, the Evi1 enrichment (H/L ratio) lay in the range of 7.11 to 47.8 H/L ratio.
